Laboratory results as given in patent US20230131339A1, “EPI-X4 BASED PEPTIDES AND DERIVATIVES THEREOF” (Universitaet Ulm, priority 2020, published 2023).
Where no end group is shown, it is not given here. Side-chain parts run from the residue outwards. [ ]: non-standard residue; d: D form. The star is where a group is joined. Stearoyl = CCCCCCCCCCCCCCCCCC(=O)*; Palmitoyl = CCCCCCCCCCCCCCCC(=O)*; Myristoyl = CCCCCCCCCCCCCC(=O)*; Glu = glutamate linker; Chl = cholesterol

Target: CXC chemokine receptor type 4 (CXCR4) (human, UniProt P61073 1-352)
Experiment: cell-based or functional assay

CXC chemokine receptor type 4 (CXCR4), sequence (P61073 whole entry): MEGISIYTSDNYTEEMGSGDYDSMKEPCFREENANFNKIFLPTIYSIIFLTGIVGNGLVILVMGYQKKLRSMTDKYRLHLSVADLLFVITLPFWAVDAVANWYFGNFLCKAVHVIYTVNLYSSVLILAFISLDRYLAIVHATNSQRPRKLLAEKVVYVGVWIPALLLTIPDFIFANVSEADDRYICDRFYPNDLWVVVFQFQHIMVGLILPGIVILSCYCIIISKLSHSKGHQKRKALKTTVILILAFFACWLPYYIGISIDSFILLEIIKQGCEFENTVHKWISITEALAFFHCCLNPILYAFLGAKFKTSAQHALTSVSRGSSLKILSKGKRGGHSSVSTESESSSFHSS

Binder	IC50, HIV inhibition assay [nM]	also measured
ILRWSRKVPC[dV]S [JM#15]	> 150	–
Ac-ILRWSRKLPCVS [JM#185]	> 150	–
XMRWSRKMPCVS (d-G at position 1 (so in the source)) [JM#38]	> 150	–
ILRWSRKLPCVS (not fully specified (residue 7)) [JM#204]	> 150	–
M[dL]RWSRK(Palmitoyl)LP-NH2 (N-terminus assumed; SMILES CCCCCCCCCCCCCCCC(=O)NCCCC[C@H](NC(=O)[C@H](CCCNC(=N)N)NC(=O)[C@H](CO)NC(=O)[C@H](Cc1c[nH]c2ccccc12)NC(=O)[C@H](CCCNC(=N)N)NC(=O)[C@@H](CC(C)C)NC(=O)[C@@H](N)CCSC)C(=O)N[C@@H](CC(C)C)C(=O)N1CCC[C@H]1C(N)=O) [JM#179]	> 150	–
ILRWSHKVPCVS [JM#9]	> 150	–
Ac-SMRWSRKMPCVS [JM#32]	> 150	–
ILRWSRK(Dec)LPCVS [JM#215]	> 150	–
[dI]LRWSRK-NH2 [JM#173]	> 150	–
IVRWSHKVPCVS [JM#4]	> 150	–
IVRWSKKMPCVS [JM#12]	> 150	–
ILRWSRKLPSVS [JM#122]	50 to 150	–
ILRWSRK([Glu-Palmitoyl])MPCLS [JM#148]	> 150	–
IVRWSKKVPSVS [JM#151]	> 150	–
ILRWSRKLPCVS (not fully specified (residue 7)) [JM#143]	> 150	IC50, X4-HIV-1 inhibition assay: 5 nM; fold increase of anti-HIV-1 potency compared to WSC02: > 60 fold
[dM]MRWSRKMPCVS [JM#35]	> 150	–
ILRWSRK(Myristoyl)-NH2 [JM#262]	50 to 150	–
IVRWSK(Palmitoyl)K-NH2 [JM#164]	> 150	–
[dL]MRWSRKMPCVS (ends and bridges not checked) [JM#36]	> 150	IC50, HIV-1 inhibition assay: 206 nM
IVRWSRKVPCVS [JM#3]	> 150	–
IFRWSRKVPCVS [JM#10]	50 to 150	–

Binder	IC50, HIV inhibition assay [nM]	also measured
ILRWSRKMPSVS [JM#24]	> 150	–
ILRWSRKVPSVS [JM#23]	> 150	–
IVRWSKKLPCVS [JM#5]	> 150	–
Ac-[dS]LRWSRKMPCVS [JM#26]	> 150	–
IVRWSKKVP-NH2 [JM#106]	> 150	–
MXRWSRKMPCVS (d-L at position 2) [JM#44]	> 150	–
ILRWSRK(Lau)LPCVS [JM#214]	50 to 150	–
IVRWSKK(Palmitoyl)-NH2 [JM#165]	> 150	–
[dI]LRWSRK(Palmitoyl)LP-NH2 [JM#175]	> 150	–
IVRWSKK-NH2 [JM#110]	> 150	–
[dL]LRWSRKMPCVS (not fully specified (residue 7)) [JM#140]	50 to 150	–
[dF]MRWSRKMPCVS [JM#37]	> 150	–
IVRWSKKIPCVS [JM#6]	> 150	–
XLRWSRKMPCVS (d-M at position 1) [JM#28]	> 150	IC50, HIV-1 inhibition assay: 246 nM
GLRWSRKMPCVS [JM#31]	> 150	–
ILRWSRK(Palmitoyl)MPCLS [JM#149]	50 to 150	–
ILRWSRK(Chl)LPCVS [JM#184]	> 150	–
IVRWSKKFPCVS [JM#7]	> 150	–
MLRWSRKMPCVS [JM#27]	50 to 150	–
IFRWSHKVPCVS [JM#11]	> 150	–
IFRWSKKVPCVS [JM#2]	> 150	–

Binder	IC50, HIV inhibition assay [nM]	also measured
ILRWSRKVPCVS [JM#8]	50 to 150	–
Ac-[dS]MRWSRKMPCVS [JM#33]	> 150	–
I[dL]RWSRKMPCVS [JM#42]	> 150	–
IIRWSRKMPCVS [JM#16]	> 150	–
VLRWSRKLPCVS [JM#189]	> 150	–
[dL]MRWSRK(Palmitoyl)MPCVS [JM#176]	> 150	–
IYRWSRKMPCLS [JM#146]	> 150	–
M[dL]RWSRK(Palmitoyl)-NH2 (N-terminus assumed; SMILES CCCCCCCCCCCCCCCC(=O)NCCCC[C@H](NC(=O)[C@H](CCCNC(=N)N)NC(=O)[C@H](CO)NC(=O)[C@H](Cc1c[nH]c2ccccc12)NC(=O)[C@H](CCCNC(=N)N)NC(=O)[C@@H](CC(C)C)NC(=O)[C@@H](N)CCSC)C(N)=O) [JM#181]	> 150	–
[dL]LRWSRK(Stearoyl)-NH2 (N-terminus assumed; SMILES CCCCCCCCCCCCCCCCCC(=O)NCCCC[C@H](NC(=O)[C@H](CCCNC(=N)N)NC(=O)[C@H](CO)NC(=O)[C@H](Cc1c[nH]c2ccccc12)NC(=O)[C@H](CCCNC(=N)N)NC(=O)[C@H](CC(C)C)NC(=O)[C@H](N)CC(C)C)C(N)=O) [JM#256]	50 to 150	–
[dL]LRWSRKMPCVS [JM#29]	> 150	–
IVRWSK(Palmitoyl)KVPCVS [JM#168]	> 150	–
ILRWSKKVPCVS [JM#1]	> 150	–
[dF]LRWSRKMPCVS [JM#30]	> 150	–
ILRWSRKLPCK([Glu-Palmitoyl])S [JM#145]	> 150	–
IVRWSKKVPC[dV]S [JM#14]	> 150	–
Ac-SLRWSRKMPCVS [JM#25]	> 150	–
ILRWSRK(Stearoyl)LPCVS [JM#182]	> 150	–
MMRWSRKMPCVS [JM#34]	50 to 150	–
IXRWSRKLPCVS (d-L at position 2) [JM#41]	> 150	–
